Assay results reported in the domain aggregation screens of Martell et al. (2025).

Test: soluble fraction after stress (log2 fold change); higher = more stays soluble; pooled small domains, quantitative proteomics
Conditions: stress: 50 degC
Summary of the method: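 Quantitative proteomics served as the high-throughput read-out for pooled custom libraries of small protein domains. Each was stressed at 50°C. Aggregation propensity is expressed as the base-two log fold change in soluble protein after stress. A higher value means a larger share of the protein remains in solution.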

Sequence	soluble fraction (log2)
HMTSLTSDEEQIINVLRAEESVYINALATKSKIPLQKLLGLLIQLEFKGLIHSLPGSHYKIV	-0.138
HMLSTGIIIGDNVALRKTASSNGGIITRLDEGTVVKILASNVNAEWYQVEAGTKTGYVNRLYVNID	-0.293
HMEYTTEELDSLLKLYFQTHESINRNEFEQLTSYTRTTASRRLKTLVQAGKLQNIGLYRFPVYKPTEGNF	-2.49
HMSLMLYVEDVDTAFKKAIELGATEIRPVHDQFYGDRAGTLQDPFGHIWIIGTHKEDVSDEELNNRIGNI	-0.0131
HMSLSIKINHESVGLRLDQFLQEHYYKQQSRSYVQHAIKEGYILVNGQSVKNGYMLKLDDLIELEAI	-1.59
HMEPMLEIFDAKIDLADVLAVESGLVRLRGGAEVTSPRVDVDAGARLELDSGARLNVERLSY	0.0258
HMLEIDPPVDEISVSRKAFYEAAGYKVNPYTHIPPRYRKEFEEHSFVVMSWPRELPEETYRKFDRYLRDV	0.103
HMDIMLLLYKNIKKRRLEIGMSQEELAQKTGYTSRSSIAKIEKGEVDLQLSKIKLFANALRVSQSELMG	-3.39
HMFDLKKIYGTILDETKSSLLLSTDDGREVQIIKTDGTEVLASGLGVYVEVAYRDETPDGYPIALTI	-0.193
HMSVPRPSAVEVTSLVTGVRDLLPHLGEGYVERVLVEFGFKVDETINALLEGNLPKHLQDLDPSLTKEI	-0.662
HMIENMQEYVRHIRAAVSDRLDLTREVEDDEIREVISQIVAEESRQNYLSLGERQTVIETVFNSMR	-0.2
HMREGRERRLSQLLSYLRTHHILTRSEYVKLTGLSPTAASSELKTFVTAGHIVRKGIASHSTYRLPH	-1.71
HMFEDYNELDEYLETRFIPTYVLLKQRKNANGEIDHFPSIRLQHIMALKLSEAELEHVMNYLKEKNIRVG	-0.325
HMAGTPAIVKWFNPTKGFGFVTPKEAGSDALLHASVLAKRGKRWLQEGTLVEVLIEEGPKGLVVSELLTIE	-0.748
HMSSHNIALDQDVVVTQLKGKVYLVAADGSQKQLAEGDILPKDAVLITPEGASFKGGNQTFTLS	0.17
HMGRKEIIVPNLLGKYAIEAGTILKNAGLLEGQAREENSDTYPAGQIMDQFPKANTPANENDKVDYVVSI	≥ 0.62
HMESVTETFLTNLINRYIADKAGYIISYPSEYRIEVLYHGGQVLDYENLRKSINTYIPAHIGYKLVTI	-0.112
HMGPEISEDAKVVFDRLKNHDEILLNNFKSEFDLSNKKWDKIIKELRGNDLISIIKSEDGNLFIKP	-0.00901
HMRAEPNSNYSLAIIYKNRYDIAVKKKDAVKEVEYGKMVYEYLNKYVVLSGNKSAKYKKILNYFSSY	-3.04
HMNPFTHEEINLMSIYNAAGTREGLIAALTEMWGYLDAEETELRELADSALAKLRGITDAEYAALELE	-0.633
HMSMNSWFVEKERDNTRIDKFLNEQMADISRSYIQKLIKDDLVTVDLRPVKANYKVKEGDRVEVTLPEPV	0.0182
HMKGERHNKILELIQQHAIDRQEDLLRYLKEAGFQVTQATVSRDIRELHLVKVAAGGGQYRYVSAAAAS	-0.0903
HMNSNQESFENWLSANSWYNKDRAMRVFADSLGQELRNSGVSFEKALTQISAEVRKEFSHKFQ	-0.163

Sequence	soluble fraction (log2)
HMSDGTVYGSDGVIKVNLPQSGMLRIYATDGTTLVNRWQAAGIDTISMPRGLYIVRFDNQVWKVVV	-0.74
HMDTFNVIARQEIDGILYEYKIMTVEDYKNQSPENLAVIYENIKAVMEQYDLSEDDADAILVDLLG	-1.12
HMLEYIEPRTAVQIHGIKAKPELNGKRGMVMGYAPERMRYRVRIDVGEGTGGKESEEVYLKPENVIAVK	0.0778
HMGRLEVDLVVPYDKYEAMNVIRAEGRILKEDHQGDGAHLKIQINETALWKLKRMLGEGYGQ	-0.157
HMGASIQITVNNTPVMLKNKTHYTLVDVLDFYPFDLSKMGGTELYTAINGVKSGFTDPVHANDSIEIYWI	-0.148
HMSGFFVYPNPAKSNIIHFPNKKSFYIYDTSGRLLIEGKGKDFIDVSTLDRGVYLLKTFENDIVKIII	-1.25
HMENFIPDDPKRIEIGMSVLHQRFGKGKVMQLEGNLPDMKATVNFEGEGQKQLLLKYARLKIV	-0.232
HMDGFAEFWSAYPKKVGKGAAEASWRKHRPPLQTVLDAVKRQAESDQWRKDGGQFIPNPATWLNQKRWEDD	0.0948
HMRKSNADALDGKTGIVKEEIKTGGYGYVGIDGDMWRSISESGEAIPAGTKVVVISHESIILTVKPA	-0.315
HMPGRPSRISDAVKDQIDHDLRKNPRDLGYSQNLWDGKLLSHHLKERYQITLGIRQAQRLFHQLGFRQR	-0.0323
HMVPLTPGELVGTEVRVLWWKEGRGEVIASSRGHQLTLEAHSEDPLRAGSTAVVLEAADDVLVVTS	-0.569
HMQANLPFSELLADVDRGLISDVTIKGDQVSGHYTDGRTFNTFIPPEADLVRRLTEKNVRIAAVPD	-0.111
HMEHVVFEVTESGELENNTAVKHVLNSFNNKSLNLAIDDFGTGYSNLRYIRDMMFGIIKIDRLFIKDINES	-0.018
HMKMLSIQRREAIRALLLEKESITIAEVMEKFQISVETARRDFDALADEGFLNKVYGGATLKK	-1.37
HMRSFGTVAQARGRWKAFYVGPDKRRHTPGVTFSNPIRAQGWLAQELTLIELGQWTPPAQRREKAEVAS	-2.4
HMTGLSNFEFNQIKLDLMHELTQTPLRLTDLVNRITSFENEKTITVIRFLVDEGILLLKDDTLSVAKID	-0.542
HMSFSSLSNDILSEIQKDNNITYDELSEKLQKDRATIYRNMKKLVENGLLKRVGGRKSGHWEIIE	0.189
HMPVSVAEQKQILAEALQERGHATFRELIENADNRMIVVGRFLALLELYRDGTVRFEQERALGELTIHWEE	-0.318
HMFGNTGETSGTGVAFTRSPVDGENKIFGEFLVNAQGEDVVAGIRTPQPISEMEQAFPEVYSKFESVAEIL	0.0862
HMSEQTLEDVRRLIEHLPESQKEVVKMRYYQDLSFKEIADLKGISINTALGRMHYAINNMRKMAKEYGL	-1.54
HMQDLPPIHLSRGMTDYTLVRSRRRTLSMELKRDGTVVVHAPLRLGVEKIDAFVAAHEAWLARARTRQAER	-2.41
HMKYRPGDVVTLRVARMGEMGAFLDAGTGNTNDDILLHKMQQTEEIKAGQDVKVYLYLDPNRRLTASMKL	-0.108
HMVEVPNVIGMTKPELTQQFVNLKLDGSGEGDVVVQQSPSEGSKVKEGSTVRVYFG	0.0119

Sequence	soluble fraction (log2)
HMIGVNMEKSTVEKFANELNLPIDLLLKQLESAGIKKTSGAEELLEADKSALLNYLQIEHGA	0.085
HMVINTRHTGFVVDDLERFINFYLGLGLKLISRKVESGEYIDKLVGLKGTKLEWAKLSLPDNSMIEILKYH	-0.375
HMTNYSFIVNENFNNKRIDQVVANHYPKISRTKVNKIIKNNLLKLNGSTFNDPSAKVKLGDQIEFENL	0.389
HMNGDWISARQEYYIRGLWDLASRAKDEASLQAMLQRIAGVTQIEWISKEKATKVILALRDIAKK	-1.68
HMTKIDYSINQIYSLRNIENITIVLKDKRSFTGKILKIYWQNGSKIILFTTETRNYKFKEYEISEIYKS	-0.268
HMVSLPSPLAGKVVSLTVQAGQEVKEGDEIMVLEAMKMNTQVHAPSSGRILALRVQPGDQVEEGQTLVTMG	0.0826
HMDSLSLTELRIDSASPWIGNRISDFSPYAGELVIMIIRGEETIVPNGDTIILDKDLLVIYSS	-2.18
HMNNDFVERLRKLFGHASMAEIARRIDVPHATIRNYFQGRLPAPEVLIKLARETGVSLNWLLTGEGKMFA	-0.253
HMKVTRWEDTGMKPAEAQEWQHYDFKPQEAMNWRDAGFVPLVARTWSDKGFDASEAQAWRDSVRNS	-0.19
HMIPPGTITIEGAITKVPVFLDGKQIGTVPLTKEDVEPGKYRIRVLGVGRVITIDPGEKENVLFSGEDLGL	-0.142
HMARHIHFEVHVQQAGRWSIHAQFGAGQREKAIEEAKKIEKTPGFDSVKVVKETYDSDLGNHQDTTIYRGP	-0.506
HMFAKVEGITGDILDKLQQQRGFLALSDKSSPEAIYDTFGVSKKVFKQAIGTLFKQQKISIEAEGIRLV	-0.709
HMHHDQQQITAELARIARNGLPGLTADNAIISRLDALNLLINIHDDRGADATPLRGLLPAIADELLRLT	-0.273
HMGDFVIVPDLIGKTIEEFDSELNELNLKYIISDSGNYNPDFKINSVLDQLPNANSKVKGGRKIYITLNAS	-1.37
HMYVQDPVDRLVLESALRLLREQEREIIFLHLVAGLKHREIAGLLHLPLSTVLSGYRRALTKMKSYLEE	-0.115
HMRSLVDRSVQAVTDHIRENALRVGDSLPGEAYFATSLGVSRAVMREAFGALAALRVIDVGNGRKPRVGAI	-0.58
HMREVVLNRIGSVAVQRATTRTWEEWVVTLDAEGMRGKEHRDVVGHLLRAHELTSWWAQMVSVGYEQSRGQ	-0.166
HMLNKRQAEILAEVSRLKEITPSELYKLQPNVSSRTLRRDMDVLVNKGLVSQDGSTKSTKYTYL	0.23
HMTKNEFLQGLKEELEGRVTHSAIQENIRYYDDYISQEVLKGSTEEEVTESLGGPRIIARTIVDAAYD	-0.0458
HMNAEQLAQVRRQKIGFIFQDFRLFPEYTVRDNILIPFYLDHRAPDEQMLHKLTGILGIAGKLHSRPAQL	-0.0698
HMKESFAQLFSLLTPTEQKVAALISQGFSNKDIAAKMFISLSTVKTHTNHIFAKMGVANRNALVAKVNN	-1.08
HMEISLEAKMAEVREQVRGLAGINFRTLLEMQASRSNIIVTFLAILELMKIGAIQIRQEEIFGEIIIDSRD	-0.222
